For 27 molecules, binding result and relative binding activity results are on record in patent publication US20150299296A1 (Chugai, published 2015).

Positions count from the first letter of the chain named.

Assay [1] has as its target T1, human FcγRIIb extracellular domain with C-terminal His tag (human, UniProt P31994 43-217).
T1 construct: extracellular domain; For crystals it was expressed with kifunensine and trimmed with Endo F1; also called FcgRIIb; FcγRIIb extracellular region
T1 sequence (looked up): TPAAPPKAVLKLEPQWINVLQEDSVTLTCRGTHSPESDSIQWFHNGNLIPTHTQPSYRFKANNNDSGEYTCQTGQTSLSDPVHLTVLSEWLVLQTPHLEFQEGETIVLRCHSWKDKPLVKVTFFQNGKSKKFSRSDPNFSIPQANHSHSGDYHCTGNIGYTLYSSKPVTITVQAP
Nature of the assay: SPR. For orientation: SPR reads the build-up and loss of mass on a sensor chip optically.

Assay [2] has as its target T2, human FcγRIIa type H extracellular domain with C-terminal His tag (human, UniProt P12318 34-217).
T2 construct: extracellular domain; also called FcgRIIaH; FcγRIIa H
T2 sequence (looked up): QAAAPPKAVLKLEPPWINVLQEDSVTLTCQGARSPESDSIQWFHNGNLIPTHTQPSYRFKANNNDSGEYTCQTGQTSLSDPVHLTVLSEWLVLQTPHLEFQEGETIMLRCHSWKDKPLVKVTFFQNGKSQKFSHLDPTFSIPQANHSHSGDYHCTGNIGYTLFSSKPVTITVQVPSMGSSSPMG
The experiment in a line: SPR; IL6R-BF648/IL6R-L=100. As to the method:
(§1) IL6R-L was utilized as the common antibody L chain for all of the antibodies, the antibodies were expressed and purified according to the method of Reference Example 1, and binding to each of the FcγRs (FcγRIa, FcγRIIa type H, FcγRIIa type R, FcγRIIb, and FcγRIIIa type V) was comprehensively evaluated by the method of Reference Example 2.
(§2) Relative binding activities were calculated for the results of analyzing interactions with the respective FcγRs according to the following method.

In assay [3] the target is T1, human FcγRIIb extracellular domain with …. Nature of the assay: SPR; IL6R-BF648/IL6R-L=100. The protocol: as §1, §2
Assay [4] concerns the target T3, human FcγRIa extracellular domain with C-terminal His tag (human, UniProt P12314 16-292).
T3 construct: Whole entry named; also called FcgRIa; FcgIa
The experiment in a line: SPR; IL6R-BF648/IL6R-L=100. As to the method: as §1, §2

The target in assay [5] is T4, human FcγRIIIa type V extracellular domain with C-terminal His tag (human, UniProt P08637 17-208).
T4 construct: extracellular domain; also called FcgRIIIaV; FcγRIIIaV
T4 sequence (P08637 17-208 F176V): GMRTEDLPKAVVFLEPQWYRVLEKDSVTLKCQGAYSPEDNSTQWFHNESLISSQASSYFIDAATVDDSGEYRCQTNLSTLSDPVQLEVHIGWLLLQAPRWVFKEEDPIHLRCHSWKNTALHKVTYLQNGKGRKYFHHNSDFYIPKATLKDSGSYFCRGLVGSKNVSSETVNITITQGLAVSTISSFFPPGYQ
Nature of the assay: SPR; IL6R-BF648/IL6R-L=100. As to the method: as §1, §2

T3 sequence (P12314 16-292): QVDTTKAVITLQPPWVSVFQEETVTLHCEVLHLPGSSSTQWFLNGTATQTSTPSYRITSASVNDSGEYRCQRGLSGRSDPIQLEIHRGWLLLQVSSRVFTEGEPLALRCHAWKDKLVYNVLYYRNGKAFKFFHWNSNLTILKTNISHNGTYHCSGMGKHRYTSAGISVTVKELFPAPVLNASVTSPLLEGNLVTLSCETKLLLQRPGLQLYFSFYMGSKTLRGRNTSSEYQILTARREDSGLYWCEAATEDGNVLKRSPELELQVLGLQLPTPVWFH

B1: IL6R-BP423/IL6R-L (antibody, human IgG1, kappa)
heavy: QVQLQESGPGLVKPSETLSLTCAVSGHSISHDHAWSWVRQPPGEGLEWIGFISYSGITNYNPSLQGRVTISRDNSKNTLYLQMNSLRAEDTAVYYCARSLARTTAMDYWGEGTLVTVSSASTKGPSVFPLAPSSKSTSGGTAALGCLVKDYFPEPVTVSWNSGALTSGVHTFPAVLQSSGLYSLSSVVTVPSSSLGTQTYICNVNHKPSNTKVDKKVEPKSCDKTHTCPPCPAPDLLGDDSVFLFPPKPKDTLMISRTPEVTCVVVDVAEEDGEVKFNWYVDGVEVHNAKTKPREEQYNSTYRVVSVLTVLHQDWLNGKEYKCKVSNKALPRPIEKTISKAKGQPREPQVYTLPPSRDELTKNQVSLTCLVKGFYPSDIAVEWESNGQPENNYKTTPPVLDSDGSFFLYSKLTVDKSRWQQGNVFSCSVMHEALHNHYTQESLSLSP
light: not shown
As for B1, the binding result in assay [1] was “binds”.

B2: IL6R-BP150/IL6R-L (antibody, human IgG1, kappa, name in EU numbering)
heavy: B1 heavy with D235E, L236Y, A269S, E270H, G273P, K328A
light: not shown
B2: the relative binding activity came to 770 in assay [2], 183 in assay [3], 30 in assay [4] and 204 in assay [5].

B3: IL6R-BP196/IL6R-L (antibody, human IgG1, kappa, name in EU numbering)
heavy: B1 heavy with D235E, L236Y, D239G, A269S, E270D, K328A, R332K
light: not shown
Turning to B3, the relative binding activity is 195 in assay [2], 157 in assay [3], 89 in assay [4] and 137 in assay [5].

B4: IL6R-BP180/IL6R-L (antibody, human IgG1, kappa, name in EU numbering)
heavy: B1 heavy with D235E, A269S, E270H, R332K
light: not shown
Take B4: the relative binding activity in assay [2] worked out at 203; in assay [3], 179; in assay [4] it was 29; in assay [5] it was 100.

B5: IL6R-BP437/IL6R-L (antibody, human IgG1, kappa)
heavy: B1 heavy with D235E, Y298D, I334T
light: not shown
Regarding B5, the binding result in assay [1] is listed as “binds”.

B6: IL6R-BP189/IL6R-L (antibody, human IgG1, kappa, name in EU numbering)
heavy: B1 heavy with D235E, A269S, E270D, K328A, R332K
light: not shown
Take B6: the relative binding activity in assay [2] came out at 183; in assay [3], 177; in assay [4], 56; in assay [5], 141.

B7: IL6R-BP183/IL6R-L (antibody, human IgG1, kappa, name in EU numbering)
heavy: B1 heavy with L236Y, D239G, A269S, E270H, K328A, R332K
light: not shown
As for B7, the relative binding activity in assay [2] came to 191; in assay [3] it was 164; in assay [4], 83; in assay [5] it was 113.

B8: IL6R-BP179/IL6R-L (antibody, human IgG1, kappa, name in EU numbering)
heavy: B1 heavy with D235E, A269S, E270H, K328A, R332K
light: not shown
As to B8, the relative binding activity was 226 in assay [2], 177 in assay [3], 39 in assay [4] and 125 in assay [5].

B9: IL6R-BP185/IL6R-L (antibody, human IgG1, kappa, name in EU numbering)
heavy: B1 heavy with L236Y, A269S, E270H, K328A, R332K
light: not shown
B9: the relative binding activity turned out to be 446 in assay [2], 179 in assay [3], 47 in assay [4] and 191 in assay [5].

B10: IL6R-BP198/IL6R-L (antibody, human IgG1, kappa, name in EU numbering)
heavy: B1 heavy with L236Y, D239G, A269S, E270D, K328A, R332K
light: not shown
B10: the relative binding activity in assay [2] is 188; in assay [3], 164; in assay [4] it was 104; in assay [5], 157.

B11: IL6R-BP199/IL6R-L (antibody, human IgG1, kappa, name in EU numbering)
heavy: B1 heavy with D239G, A269S, E270H, G273P, K328A
light: not shown
Turning to B11, the relative binding activity in assay [2] is 116; in assay [3], 144; in assay [4] it was 112; in assay [5], 103.

B12: IL6R-BP209/IL6R-L (antibody, human IgG1, kappa, name in EU numbering)
heavy: B1 heavy with D235E, A269S, E270D, K328A
light: not shown
In the case of B12, the relative binding activity in assay [2] was determined as 267; in assay [3], 186; in assay [4] it was 68; in assay [5] it was 153.

B13: IL6R-BP184/IL6R-L (antibody, human IgG1, kappa, name in EU numbering)
heavy: B1 heavy with D239G, A269S, E270H, R332K
light: not shown
With B13, the relative binding activity in assay [2] amounted to 131; in assay [3], 171; in assay [4], 96; in assay [5], 106.

B14: IL6R-BP487/IL6R-L (antibody, human IgG1, kappa)
heavy: B1 heavy with V266I, P398M
light: not shown
For the molecule B14, the binding result in assay [1] is recorded as “binds”.

B15: IL6R-BP187/IL6R-L (antibody, human IgG1, kappa, name in EU numbering)
heavy: B1 heavy with D235E, L236Y, D239G, A269S, E270H, K328A, R332K
light: not shown
As to B15, the relative binding activity in assay [2] amounted to 205; in assay [3], 157; in assay [4], 68; in assay [5], 124.

B16: IL6R-BP429/IL6R-L (antibody, human IgG1, kappa)
heavy: B1 heavy with V266I, A269G
light: not shown
On to B16, for which the binding result in assay [1] is listed as “binds”.

B17: IL6R-BP192/IL6R-L (antibody, human IgG1, kappa, name in EU numbering)
heavy: B1 heavy with D239G, A269S, E270D, Y298D, R332K
light: not shown
Take B17: the relative binding activity in assay [2] turned out to be 122; in assay [3], 172; in assay [4] it was 109; in assay [5], 118.

B18: IL6R-BP206/IL6R-L (antibody, human IgG1, kappa, name in EU numbering)
heavy: B1 heavy with D239G, A269S, E270H
light: not shown
Consider B18, for which the relative binding activity in assay [2] was 123; in assay [3], 168; in assay [4], 101; in assay [5] it was 92.

B19: IL6R-BP148/IL6R-L (antibody, human IgG1, kappa, name in EU numbering)
heavy: B1 heavy with L236Y, A269S, E270H, G273P, K328A, R332K
light: not shown
B19: the relative binding activity is 462 in assay [2], 176 in assay [3], 33 in assay [4] and 227 in assay [5].

B20: IL6R-BP186/IL6R-L (antibody, human IgG1, kappa, name in EU numbering)
heavy: B1 heavy with L236Y, A269S, E270H, Y298D, K328A, R332K
light: not shown
As to B20, the relative binding activity was 368 in assay [2], 175 in assay [3], 43 in assay [4] and 143 in assay [5].

B21: IL6R-BP194/IL6R-L (antibody, human IgG1, kappa, name in EU numbering)
heavy: B1 heavy with L236Y, A269S, E270D, K328A, R332K
light: not shown
As to B21, the relative binding activity in assay [2] stood at 395; in assay [3], 178; in assay [4], 69; in assay [5], 249.

B22: IL6R-BP149/IL6R-L (antibody, human IgG1, kappa, name in EU numbering)
heavy: B1 heavy with L236Y, A269S, E270H, G273P, Y298D, K328A, R332K
light: not shown
notes: Same printed alterations as IL6R-BP214
For the molecule B22, the relative binding activity in assay [2] is 401; in assay [3], 173; in assay [4], 29; in assay [5], 186.

B23: IL6R-BP213/IL6R-L (antibody, human IgG1, kappa, name in EU numbering)
heavy: B1 heavy with D239G, A269S, E270D
light: not shown
Consider B23, for which the relative binding activity stood at 123 in assay [2], 169 in assay [3], 118 in assay [4] and 100 in assay [5].

B24: IL6R-BP177/IL6R-L (antibody, human IgG1, kappa, name in EU numbering)
heavy: B1 heavy with L236Y, A269S, E270H, K328D, R332K
light: not shown
In the case of B24, the relative binding activity came out at 409 in assay [2], 177 in assay [3], 57 in assay [4] and 186 in assay [5].

B25: IL6R-BP445/IL6R-L (antibody, human IgG1, kappa)
heavy: B1 heavy with V266I
light: not shown
As for B25, the binding result in assay [1] is on record as “binds”.

B26: IL6R-BP203/IL6R-L (antibody, human IgG1, kappa, name in EU numbering)
heavy: B1 heavy with D235E, A269S, E270H
light: not shown
As to B26, the relative binding activity in assay [2] is 255; in assay [3] it was 185; in assay [4], 35; in assay [5], 88.

B27: IL6R-BP207/IL6R-L (antibody, human IgG1, kappa, name in EU numbering)
heavy: B1 heavy with D239G, A269S, E270H, G273P
light: not shown
Consider B27, for which the relative binding activity in assay [2] stood at 103; in assay [3] it was 124; in assay [4], 74; in assay [5] it was 97.
